Data published in patent publication US20240100133A1, “ENZYMATICALLY INACTIVE GRANZYME A AND USES THEREFORE” (Saint Louis University, priority 2022, published 2024).
Residue numbers refer to the chain shown, from its start. Names and notes keep the numbering of the source. Like-named read-outs stand apart in the source and are kept apart here.

T1: CD14 (Homo sapiens, UniProt P08571)
T1 sequence (P08571 20-345): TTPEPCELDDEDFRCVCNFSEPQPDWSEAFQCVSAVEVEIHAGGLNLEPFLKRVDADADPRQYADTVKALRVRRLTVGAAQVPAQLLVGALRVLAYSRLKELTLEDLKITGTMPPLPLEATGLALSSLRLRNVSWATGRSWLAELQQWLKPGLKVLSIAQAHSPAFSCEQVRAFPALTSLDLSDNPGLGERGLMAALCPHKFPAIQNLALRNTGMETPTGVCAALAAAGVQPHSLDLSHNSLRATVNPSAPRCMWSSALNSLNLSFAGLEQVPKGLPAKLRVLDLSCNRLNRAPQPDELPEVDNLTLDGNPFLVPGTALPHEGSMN

B1: GzmA-C93S: Granzyme A variant with cysteine 93 substituted with serine; forms only monomers, retains enzymatic activity (protein)
chain: IIGGNEVTPHSRPYMVLLSLDRKTICAGALIAKDWVLTAAHCNLNKRSQVILGAHSITREEPTKQIMLVKKEFPYPSYDPATREGDLKLLQLMEKAKINKYVTILHLPKKGDDVKPGTMCQVAGWGRTHNSASWSDTLREVNITIIDRKVCNDRNHYNFNPVIGMNMVCAGSLRGGRDSCNGDSGSPLLCEGVFRGVTSFGLENKCGDPRGPGVYILLSKKHLNWIIMTIKGAV
modifications: left off: small tags and cut ends
B2: GzmA-S195A (protein)
chain: B1 chain with S77C, S184A
modifications: left off: small tags and cut ends

Columns and labels:
[1] = BLT esterase assay for GzmA enzyme activity; format: biochemical; conditions: 120 pM protein; substrate BLT
Method: BLT esterase protocol for measuring GzmA enzyme activity. BLT esterase assays and calculation of specific activity were adapted from (Rasi et al., 2021; Rasi et al., 2022). Substrate Z-L-Lys-SBz1 hydrochloride (Sigma #C3647-25MG) was added to 96 well plates with a serial dilution between 19.5-2,500 μM. Assay buffer consisted of 50 mM Tris, 154 mM NaCl, pH 7.5 in presence of […] (5,5-dithio-bis-(2-nitrobenzoic acid) (DTNB) chromophore. 120 pM of protein was added to each well and substrate hydrolysis was quantified by measuring the absorbance at 405 nm.

[2] = system: Connaught BCG within primary CD14+ human monocytes; format: cell-based; conditions: for inhibition of intracellular mycobacterial replication (MGIA): 72 h
[3] = system: Mtb H37Rv within primary CD14+ human monocytes; format: cell-based, Mycobacterium tuberculosis; conditions: 200 nM GzmA, Mtb MOI 1, human monocytes
[4] = system: mycobacteria within iMac-WT mouse cells; format: cell-based; conditions: human GzmA on mouse iMac-WT cells
mycobacteria BCG-GFP = format: binding
[5] = system: LAMP1 (phagolysosome fusion); assay: Confocal microscopy colocalization of BCG-GFP and LAMP1; format: cell-based, human; conditions: compared with untreated controls
Method: Confocal microscopy and Stimulation Emission Depletion (STED) experiments. For confocal and STED microscopy experiments, cells were incubated on coverslips pre-treated with Cell-Tak (Corning #354240). At the time of fixation, cells were washed twice with 1×RT PBS, and then fixed in 4% paraformaldehyde for 15 min at 37° C. Slides were washed thrice for 5 min at RT with 1×PBS, and then blocked with 5% donkey serum (Cat. #017-000-121, Jackson ImmunoResearch, West Grove, PA) with 0.25% Tween-20 (Cat. #P9416, Sigma, St. Louis, MO) and True Stain Fc blocker (added only during blocking step) (Cat. #426101, Biolegend, San Diego, CA). Cells were then incubated overnight at 4° C. with primary antibody anti-GzmA (Cat. #MAB29051, R&D, Minneapolis, MN) at 12.5 μg/mL in blocking buffer, anti-PDIA1 (Cat. #MAB4236, R&D, Minneapolis, MN) at 12.5 μg/mL in blocking buffer, anti-LAMP1 at 12.5 ug/ml (Cat. #MAB4800, R&D, Minneapolis, MN), or anti-ATPSH (Cat. #ab110275, Abcam, Cambridge, UK) at 5 μg/mL in blocking buffer. To remove unbound antibody, cells were washed four times with 1×PBS at RT, and then incubated in the dark for 2 h with secondary antibody conjugated with Alexa Fluor 594 (Cat. #715-545-150, Jackson Immunoresearch, West Grove, PA) at 1:100 or Atto 647N (Cat. #ASR3248, Abcepta, San Diego, Ca) at 1:100. […]

CD14 = target: T1, CD14; assay: Immunoprecipitation with anti-GzmA, probed for CD14; conditions: human monocyte lysates, infected and uninfected cells
TLR4 = TLR4 (Homo sapiens, UniProt O00206); assay: Immunoprecipitation with anti-GzmA, probed for TLR4; conditions: human monocyte lysates, infected and uninfected cells
TLR4, sequence (O00206 24-839): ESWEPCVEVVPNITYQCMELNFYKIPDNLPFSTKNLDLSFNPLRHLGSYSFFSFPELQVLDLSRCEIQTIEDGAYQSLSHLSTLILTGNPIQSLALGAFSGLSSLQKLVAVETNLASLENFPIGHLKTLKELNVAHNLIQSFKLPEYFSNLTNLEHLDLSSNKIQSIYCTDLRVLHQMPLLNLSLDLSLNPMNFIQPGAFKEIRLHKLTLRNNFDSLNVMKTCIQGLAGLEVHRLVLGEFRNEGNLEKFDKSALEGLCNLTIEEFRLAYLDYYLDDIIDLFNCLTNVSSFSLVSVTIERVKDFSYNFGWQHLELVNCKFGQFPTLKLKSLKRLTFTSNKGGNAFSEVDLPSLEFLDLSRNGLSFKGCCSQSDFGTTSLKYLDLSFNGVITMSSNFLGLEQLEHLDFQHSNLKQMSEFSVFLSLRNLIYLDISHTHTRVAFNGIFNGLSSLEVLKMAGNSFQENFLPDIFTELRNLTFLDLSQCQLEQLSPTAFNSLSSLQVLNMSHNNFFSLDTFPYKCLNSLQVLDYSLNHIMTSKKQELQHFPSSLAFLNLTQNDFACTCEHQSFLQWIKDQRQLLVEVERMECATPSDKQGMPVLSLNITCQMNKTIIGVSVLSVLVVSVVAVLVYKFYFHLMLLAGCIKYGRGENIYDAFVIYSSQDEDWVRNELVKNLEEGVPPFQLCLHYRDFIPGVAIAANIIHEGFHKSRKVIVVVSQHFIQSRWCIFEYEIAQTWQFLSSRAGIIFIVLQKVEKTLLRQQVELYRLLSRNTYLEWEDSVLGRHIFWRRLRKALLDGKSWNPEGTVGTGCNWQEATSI

Molecule | enzymatic (esterase) activity, cleavage of BLT [1] | effect of monomeric GzmA on protective effects of GzmA-WT (mixing experiment) [2] | intracellular replication of pre-opsonized mycobacteria (excess protein removed) [2] | inhibition of intracellular mycobacterial replication (MGIA) [2] | inhibition of intracellular Mtb (MGIA) [3] | inhibition of mycobacterial growth in iMac-WT cells [4] | binding to mycobacteria (mycobacteria BCG-GFP) | colocalization between LAMP1 and BCG-GFP [5] | binding to CD14 (immunoprecipitation) (CD14) | binding to TLR4 (immunoprecipitation) (TLR4) | GzmA inhibitory activity after CD14 neutralization (MGIA) [2] | GzmA inhibitory activity after TLR2 neutralization (MGIA) [2] | inhibition of intracellular Mtb (MGIA) ([3]; listed as recombinant enzymatically inactive GzmA)
B1 | cleaved similar amounts of BLT as GzmA-WT | partially inhibit the protective effects of GzmA-WT | cannot | loses its inhibitory activity | did not | did not | able to bind mycobacteria | fails to direct mycobacteria into the phagolysosome | does not | does not | – | – | –
B2 | loses its enzymatic activity | – | – | inhibits the intracellular replication of mycobacteria | inhibited Mtb | modestly inhibit mycobacterial growth | bound mycobacteria | – | – | – | lost their inhibitory activity | does not reverse | very potent at protecting against Mtb intracellular infection
